From paper PMC11933459 (Nature Communications, 2025)

Experiments:
cryo-EM structure [1] = target: the molecule itself; assay: cryo-EM structure
cryo-EM structure [2] = target: the molecule itself; assay: cryo-EM structure; remark: listed apart in the source

Protein	stoichiometry N (cryo-EM structure [1])	binding result (cryo-EM structure [2])
Full-length human XPR1 (wild type), purified, tags removed (natural protein, UniProt Q9UBH6 1-696, looked up) MKFAEHLSAHITPEWRKQYIQYEAFKDMLYSAQDQAPSVEVTDEDTVKRYFAKFEEKFFQTCEKELAKINTFYSEKLAEAQRRFATLQNELQSSLDAQKESTGVTTLRQRRKPVFHLSHEERVQHRNIKDLKLAFSEFYLSLILLQNYQNLNFTGFRKILKKHDKILETSRGADWRVAHVEVAPFYTCKKINQLISETEAVVTNELEDGDRQKAMKRLRVPPLGAAQPAPAWTTFRVGLFCGIFIVLNITLVLAAVFKLETDRSIWPLIRIYRGGFLLIEFLFLLGINTYGWRQAGVNHVLIFELNPRSNLSHQHLFEIAGFLGILWCLSLLACFFAPISVIPTYVYPLALYGFMVFFLINPTKTFYYKSRFWLLKLLFRVFTAPFHKVGFADFWLADQLNSLSVILMDLEYMICFYSLELKWDESKGLLPNNSEESGICHKYTYGVRAIVQCIPAWLRFIQCLRRYRDTKRAFPHLVNAGKYSTTFFMVTFAALYSTHKERGHSDTMVFFYLWIVFYIISSCYTLIWDLKMDWGLFDKNAGENTFLREEIVYPQKAYYYCAIIEDVILRFAWTIQISITSTTLLPHSGDIIATVFAPLEVFRRFVWNFFRLENEHLNNCGEFRAVRDISVAPLNADDQTLLEQMMDQDDGVRNRQKNRSWKYNQSISLRRPRLASQSKARDTKVLIEDTDDEANT	2	
XPR1-E622A/F623A mutant (full-length human XPR1), purified, tags removed (natural protein, UniProt Q9UBH6 1-696, looked up) MKFAEHLSAHITPEWRKQYIQYEAFKDMLYSAQDQAPSVEVTDEDTVKRYFAKFEEKFFQTCEKELAKINTFYSEKLAEAQRRFATLQNELQSSLDAQKESTGVTTLRQRRKPVFHLSHEERVQHRNIKDLKLAFSEFYLSLILLQNYQNLNFTGFRKILKKHDKILETSRGADWRVAHVEVAPFYTCKKINQLISETEAVVTNELEDGDRQKAMKRLRVPPLGAAQPAPAWTTFRVGLFCGIFIVLNITLVLAAVFKLETDRSIWPLIRIYRGGFLLIEFLFLLGINTYGWRQAGVNHVLIFELNPRSNLSHQHLFEIAGFLGILWCLSLLACFFAPISVIPTYVYPLALYGFMVFFLINPTKTFYYKSRFWLLKLLFRVFTAPFHKVGFADFWLADQLNSLSVILMDLEYMICFYSLELKWDESKGLLPNNSEESGICHKYTYGVRAIVQCIPAWLRFIQCLRRYRDTKRAFPHLVNAGKYSTTFFMVTFAALYSTHKERGHSDTMVFFYLWIVFYIISSCYTLIWDLKMDWGLFDKNAGENTFLREEIVYPQKAYYYCAIIEDVILRFAWTIQISITSTTLLPHSGDIIATVFAPLEVFRRFVWNFFRLENEHLNNCGAARAVRDISVAPLNADDQTLLEQMMDQDDGVRNRQKNRSWKYNQSISLRRPRLASQSKARDTKVLIEDTDDEANT		binds
